According to publication PMC10397247:

Key:
[1] = target: T1, 4H575-bH; assay: two-hybrid library CCNG1;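 further: natural log of median RNA to DNA barcode read ratio; higher means stronger binding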
T1 chain: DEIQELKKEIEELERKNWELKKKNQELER

[2] = target: T2, 4H1544-bH; assay: two-hybrid library CCNG1;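 further: natural log of median RNA to DNA barcode read ratio; higher means stronger binding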
T2 chain: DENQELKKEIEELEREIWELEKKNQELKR

[3] = target: T3, 4H2627-bA; assay: two-hybrid library CCNG1;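 further: natural log of median RNA to DNA barcode read ratio; higher means stronger binding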
T3 chain: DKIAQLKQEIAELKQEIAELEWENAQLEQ

[4] = target: T4, 4H346-bH; assay: two-hybrid library CCNG1;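 further: natural log of median RNA to DNA barcode read ratio; higher means stronger binding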
T4 chain: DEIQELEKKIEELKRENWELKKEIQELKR

[5] = target: T5, 4H3112-bH; assay: two-hybrid library CCNG1
T5 chain: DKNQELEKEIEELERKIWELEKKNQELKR

[6] = target: T6, 4H1710-bH; assay: two-hybrid library CCNG1
T6 chain: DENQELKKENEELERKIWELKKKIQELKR

[7] = target: T7, O6-bS; assay: two-hybrid library CCNG1
T7 chain: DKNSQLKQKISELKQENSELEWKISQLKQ

[8] = target: T8, 4H2586-bH; assay: two-hybrid library CCNG1
T8 chain: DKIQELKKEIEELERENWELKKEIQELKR

[9] = target: T9, 4H1348-bH; assay: two-hybrid library CCNG1
T9 chain: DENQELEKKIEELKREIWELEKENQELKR

[10] = target: T10, 4H780-bH; assay: two-hybrid library CCNG1
T10 chain: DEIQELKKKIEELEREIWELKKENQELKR

[11] = target: T11, 4H2627-bH; assay: two-hybrid library CCNG1
T11 chain: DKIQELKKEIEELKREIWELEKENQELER

[12] = target: T12, 4H2717-bA; assay: two-hybrid library CCNG1
T12 chain: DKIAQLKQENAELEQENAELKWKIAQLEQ

[13] = target: T13, 4H3175-bH; assay: two-hybrid library CCNG1
T13 chain: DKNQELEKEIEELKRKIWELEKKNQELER

[14] = target: T14, 4H3462-bH; assay: two-hybrid library CCNG1
T14 chain: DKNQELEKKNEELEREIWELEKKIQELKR

[15] = target: T15, 4H1081-bH; assay: two-hybrid library CCNG1; settings: mean of both orientations
T15 chain: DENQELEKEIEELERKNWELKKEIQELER

[16] = target: T16, 4H754-bH; assay: two-hybrid library CCNG1
T16 chain: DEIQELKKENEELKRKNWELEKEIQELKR

[17] = target: T17, 4H118-bH; assay: two-hybrid library CCNG1
T17 chain: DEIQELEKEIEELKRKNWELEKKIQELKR

[18] = target: T18, 4H953-bN; assay: two-hybrid library CCNG1
T18 chain: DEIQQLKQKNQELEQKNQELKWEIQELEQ

[19] = target: T19, 4H3298-bH; assay: two-hybrid library CCNG1
T19 chain: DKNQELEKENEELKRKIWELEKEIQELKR

[20] = target: T20, 4H3427-bH; assay: two-hybrid library CCNG1
T20 chain: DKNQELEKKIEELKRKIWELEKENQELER

[21] = target: T21, 4H457-bH; assay: two-hybrid library CCNG1
T21 chain: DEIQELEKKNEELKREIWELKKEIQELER

[22] = target: T22, 4H3613-bH; assay: two-hybrid library CCNG1
T22 chain: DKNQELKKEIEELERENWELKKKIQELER

[23] = target: T23, 4H855-bH; assay: two-hybrid library CCNG1
T23 chain: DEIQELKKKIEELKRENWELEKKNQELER

[24] = target: T24, 4H1373-bH; assay: two-hybrid library CCNG1
T24 chain: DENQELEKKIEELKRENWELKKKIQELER

[25] = target: T25, 4H3010-bH; assay: two-hybrid library CCNG1
T25 chain: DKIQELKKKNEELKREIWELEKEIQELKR

[26] = target: T26, 4H2702-bH; assay: two-hybrid library CCNG1
T26 chain: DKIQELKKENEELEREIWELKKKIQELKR

[27] = target: T27, 4H1985-bH; assay: two-hybrid library CCNG1
T27 chain: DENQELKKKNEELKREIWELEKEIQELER

[28] = target: T28, 4H3277-bH; assay: two-hybrid library CCNG1
T28 chain: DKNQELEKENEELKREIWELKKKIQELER

[29] = target: T29, 4H683-bH; assay: two-hybrid library CCNG1
T29 chain: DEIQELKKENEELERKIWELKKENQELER

[30] = target: T30, 4H626-bH; assay: two-hybrid library CCNG1
T30 chain: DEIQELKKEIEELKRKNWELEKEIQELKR

[31] = target: T31, 4H3926-bH; assay: two-hybrid library CCNG1; settings: mean of both orientations
T31 chain: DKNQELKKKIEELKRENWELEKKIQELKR

[32] = target: T32, 4H918-bH; assay: two-hybrid library CCNG1
T32 chain: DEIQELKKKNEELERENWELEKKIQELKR

[33] = target: T33, 4H591-bH; assay: two-hybrid library CCNG1
T33 chain: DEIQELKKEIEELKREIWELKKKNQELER

[34] = target: T34, 4H2673-bH; assay: two-hybrid library CCNG1
T34 chain: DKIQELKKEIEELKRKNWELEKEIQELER

[35] = target: T35, 4H906-bH; assay: two-hybrid library CCNG1
T35 chain: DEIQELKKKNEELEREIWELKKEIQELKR

[36] = target: T36, 4H797-bH; assay: two-hybrid library CCNG1
T36 chain: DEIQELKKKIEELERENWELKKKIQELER

[37] = target: T37, 4H3628-bH; assay: two-hybrid library CCNG1
T37 chain: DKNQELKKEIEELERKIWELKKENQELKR

[38] = target: T38, 4H953-bH; assay: two-hybrid library CCNG1
T38 chain: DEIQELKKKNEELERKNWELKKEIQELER

[39] = target: T39, 4H112-bH; assay: two-hybrid library CCNG1
T39 chain: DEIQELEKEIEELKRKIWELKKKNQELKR

[40] = target: T40, 4H3497-bH; assay: two-hybrid library CCNG1
T40 chain: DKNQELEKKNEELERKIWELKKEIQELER

[41] = target: T41, 4H3162-bH; assay: two-hybrid library CCNG1
T41 chain: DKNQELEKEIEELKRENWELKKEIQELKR

[42] = target: T42, 4H1158-bH; assay: two-hybrid library CCNG1
T42 chain: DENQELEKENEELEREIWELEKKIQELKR

[43] = target: T43, 4H1899-bH; assay: two-hybrid library CCNG1
T43 chain: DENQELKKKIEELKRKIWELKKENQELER

[44] = target: T44, 4H4073-bH; assay: two-hybrid library CCNG1
T44 chain: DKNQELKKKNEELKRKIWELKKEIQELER

[45] = target: T45, 4H968-bH; assay: two-hybrid library CCNG1
T45 chain: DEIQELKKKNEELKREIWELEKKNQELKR

[46] = target: T46, 4H1831-bH; assay: two-hybrid library CCNG1
T46 chain: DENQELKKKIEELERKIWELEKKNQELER

[47] = target: T47, 4H170-bH; assay: two-hybrid library CCNG1
T47 chain: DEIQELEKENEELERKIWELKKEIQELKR

[48] = target: T48, Core_IIII-es_KKEK; assay: two-hybrid library CCmax; settings: mean of both orientations
T48 chain: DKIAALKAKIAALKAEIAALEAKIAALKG

[49] = target: T49, P4; assay: two-hybrid library CCmax; settings: mean of both orientations
T49 chain: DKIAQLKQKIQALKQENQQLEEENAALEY

[50] = target: T50, P4S; assay: two-hybrid library CCmax; settings: mean of both orientations
T50 chain: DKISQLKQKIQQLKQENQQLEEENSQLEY

DENQELEKEIEELERKNWELKKEIQELER [4H1081-bH]
interaction score [1]: -2.22
interaction score [2]: -1.4
interaction score [3]: 0.747
interaction score [4]: 0.118
interaction score [5]: -0.896
interaction score [6]: -2.01
interaction score [7]: 1.86
interaction score [8]: -2.05
interaction score [9]: -1.51
interaction score [10]: -0.372
interaction score [11]: 0.276
interaction score [12]: -0.543
interaction score [13]: -0.0753
interaction score [14]: -0.765
interaction score [15]: -1.95
interaction score [16]: -0.22
interaction score [17]: -1.07
interaction score [18]: -0.336
interaction score [19]: -0.0402
interaction score [20]: -0.522
interaction score [21]: -0.677
interaction score [22]: -1.47
interaction score [23]: -0.163
interaction score [24]: -1.35
interaction score [25]: -1.02
interaction score [26]: 1.09
interaction score [27]: -1.01
interaction score [28]: -0.363
interaction score [29]: -0.574
interaction score [30]: -0.576
interaction score [31]: 1.74
interaction score [32]: -0.0748
interaction score [33]: -0.509
interaction score [34]: -0.0547
interaction score [35]: -0.686
interaction score [36]: -0.717
interaction score [37]: -1.16
interaction score [38]: -0.931
interaction score [39]: -1.77
interaction score [40]: -1.2
interaction score [41]: -0.705
interaction score [42]: 0.0141
interaction score [43]: -0.674
interaction score [44]: -1.25
interaction score [45]: -0.887
interaction score [46]: -1.05
interaction score [47]: -0.0634

DEIAALEAEIAALEAKIAALKAEIAALEG [Core_IIII-es_EEKE]
interaction score [48]: 2.36

DEIQQLEEEISQLEQKNSQLKEKNQQLKY [P3S]
interaction score [49]: 0.472
interaction score [50]: 0.00696
